Measurements from patent US20220289850 (published 2022).
“And” between values parts separate entries of the source, which are not always exact repeats. Identical values can stand only once.

T1: human integrin avb8 (human)
T1 chain 1: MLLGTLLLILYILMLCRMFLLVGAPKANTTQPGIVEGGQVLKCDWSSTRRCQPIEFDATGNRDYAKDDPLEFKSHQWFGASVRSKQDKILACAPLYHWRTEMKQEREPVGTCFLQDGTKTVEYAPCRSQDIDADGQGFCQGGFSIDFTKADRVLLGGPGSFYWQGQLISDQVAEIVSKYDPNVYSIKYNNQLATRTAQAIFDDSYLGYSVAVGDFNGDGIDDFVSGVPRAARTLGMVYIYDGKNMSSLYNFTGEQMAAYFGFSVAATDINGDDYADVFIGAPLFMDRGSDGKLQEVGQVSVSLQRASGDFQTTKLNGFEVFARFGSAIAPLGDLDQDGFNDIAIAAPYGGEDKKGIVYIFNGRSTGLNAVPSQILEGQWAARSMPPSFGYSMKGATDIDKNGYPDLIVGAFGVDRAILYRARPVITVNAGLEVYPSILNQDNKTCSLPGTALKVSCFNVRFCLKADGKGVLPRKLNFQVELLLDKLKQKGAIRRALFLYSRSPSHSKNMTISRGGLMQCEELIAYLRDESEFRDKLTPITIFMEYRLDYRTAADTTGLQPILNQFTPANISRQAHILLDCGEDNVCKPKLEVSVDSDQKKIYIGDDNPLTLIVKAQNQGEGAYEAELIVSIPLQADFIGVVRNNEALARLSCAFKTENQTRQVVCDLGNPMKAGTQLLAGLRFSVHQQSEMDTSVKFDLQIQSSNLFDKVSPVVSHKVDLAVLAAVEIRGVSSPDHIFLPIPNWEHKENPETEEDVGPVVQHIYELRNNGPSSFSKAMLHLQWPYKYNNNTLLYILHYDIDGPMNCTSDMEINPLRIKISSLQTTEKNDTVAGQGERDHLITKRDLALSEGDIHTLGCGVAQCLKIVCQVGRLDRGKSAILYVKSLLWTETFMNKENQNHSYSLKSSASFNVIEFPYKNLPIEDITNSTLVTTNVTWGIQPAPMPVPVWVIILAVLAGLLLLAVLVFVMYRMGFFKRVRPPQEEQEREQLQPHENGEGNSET
T1 chain 2: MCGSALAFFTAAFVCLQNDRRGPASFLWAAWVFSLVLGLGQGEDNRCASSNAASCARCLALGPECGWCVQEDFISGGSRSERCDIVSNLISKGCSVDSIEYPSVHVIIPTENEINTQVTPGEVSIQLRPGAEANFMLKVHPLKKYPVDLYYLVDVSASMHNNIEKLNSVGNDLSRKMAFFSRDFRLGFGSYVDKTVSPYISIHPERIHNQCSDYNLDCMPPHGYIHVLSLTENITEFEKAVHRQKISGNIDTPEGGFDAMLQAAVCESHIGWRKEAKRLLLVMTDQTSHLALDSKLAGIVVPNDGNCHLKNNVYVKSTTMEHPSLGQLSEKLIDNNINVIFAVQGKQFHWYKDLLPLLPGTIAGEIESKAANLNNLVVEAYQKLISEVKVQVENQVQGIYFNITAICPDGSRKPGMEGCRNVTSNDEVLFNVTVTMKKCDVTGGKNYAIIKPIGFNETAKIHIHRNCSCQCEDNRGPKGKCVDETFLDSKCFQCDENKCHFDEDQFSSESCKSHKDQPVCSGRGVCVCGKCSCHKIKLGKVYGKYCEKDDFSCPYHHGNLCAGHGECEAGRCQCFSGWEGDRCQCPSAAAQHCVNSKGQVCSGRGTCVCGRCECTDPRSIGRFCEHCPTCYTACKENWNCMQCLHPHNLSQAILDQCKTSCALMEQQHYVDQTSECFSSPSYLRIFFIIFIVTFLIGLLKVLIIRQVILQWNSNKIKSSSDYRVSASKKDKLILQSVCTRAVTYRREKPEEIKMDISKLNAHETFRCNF


Key:
[1] = target: T1, human integrin avb8; assay: SPR
[2] = target: T1, human integrin avb8; assay: FACS U251 cells

Kd [1]	EC50 [2]	Binder
< 100 pM	–	ADWA11 2.4 Fab (antibody, V domains shown) VH: EVQLVESGGGLVQPGGSLRLSCAASGFNIKDYYMNWVRQAPGKGLEWVGWIDPDQGNTIYEPKFQGRFTISADTSKNSAYLQMNSLRAEDTAVYYCARRLLMDYWGQGTLVTVSS VL: DIQMTQSPSSLSASVGDRVTITCRSTKSLSHFNGNTYLFWYQQKPGKAPKRLIYYMSSLASGVPSRFSGSGSGTDFTLTISSLQPEDFATYYCQQSLEYPFTFGGGTKVEIK
–	256 pM and 126 pM	ADWA11 2.4 IgG (antibody) chain 1: EVQLVESGGGLVQPGGSLRLSCAASGFNIKDYYMNWVRQAPGKGLEWVGWIDPDQGNTIYEPKFQGRFTISADTSKNSAYLQMNSLRAEDTAVYYCARRLLMDYWGQGTLVTVSSASTKGPSVFPLAPSSKSTSGGTAALGCLVKDYFPEPVTVSWNSGALTSGVHTFPAVLQSSGLYSLSSVVTVPSSSLGTQTYICNVNHKPSNTKVDKKVEPKSCDKTHTCPPCPAPEAAGAPSVFLFPPKPKDTLMISRTPEVTCVVVDVSHEDPEVKFNWYVDGVEVHNAKTKPREEQYNSTYRVVSVLTVLHQDWLNGKEYKCKVSNKALPAPIEKTISKAKGQPREPQVYTLPPSREEMTKNQVSLTCLVKGFYPSDIAVEWESNGQPENNYKTTPPVLDSDGSFFLYSKLTVDKSRWQQGNVFSCSVMHEALHNHYTQKSLSLSPGK chain 2: DIQMTQSPSSLSASVGDRVTITCRSTKSLSHFNGNTYLFWYQQKPGKAPKRLIYYMSSLASGVPSRFSGSGSGTDFTLTISSLQPEDFATYYCQQSLEYPFTFGGGTKVEIKRTVAAPSVFIFPPSDEQLKSGTASVVCLLNNFYPREAKVQWKVDNALQSGNSQESVTEQDSKDSTYSLSSTLTLSKADYEKHKVYACEVTHQGLSSPVTKSFNRGEC
